Measured values from publication PMC6435465.

Assays:
[1] = molecular target: chlorinated and reduced SAYabJ (HOCl-treated, then DTT-reduced YabJ from S. aureus Mu50) (Staphylococcus aureus Mu50); assay: SDS/PAGE; 12% polyacrylamide gel, samples treated with 1% SDS and 5% 2-mercaptoethanol at 100°C for 5 min; trimer band at 50 kDa, monomer band at 16 kDa
[2] = molecular target: YabJ from Staphylococcus aureus Mu50 (SAV0497), native recombinant (Staphylococcus aureus Mu50); assay: as above
[3] = molecular target: YabJ from Staphylococcus aureus Mu50 (SAV0497), native recombinant (Staphylococcus aureus Mu50); assay: crystal structure; 1.75 Å, space group P2(1), six molecules per asymmetric unit; crystals from 25% PEG3350, 100 mM Tris/HCl pH 8.5, 293 K; interfaces calculated with PISA
[4] = molecular target: YabJ from Staphylococcus aureus Mu50 (SAV0497), native recombinant (Staphylococcus aureus Mu50); assay: SEC; size-exclusion chromatography of native and chemically treated SAYabJ; excess HOCl, DTT and H2O2 removed by dialysis beforehand; Superdex 75 (10/300 GL), 50 mM Tris/HCl pH 7.5, 200 mM NaCl named for the purification

stoichiometry N [2] | stoichiometry N [3] | stoichiometry N [4] | Substance | stoichiometry N [1]
 |  |  | chlorinated and reduced SAYabJ (HOCl-treated, then DTT-reduced YabJ from S. aureus Mu50) (natural protein) | 3
3 | 3 | 3 | YabJ from Staphylococcus aureus Mu50 (SAV0497), native recombinant (natural protein) | 
